Assay [1] has as its target T1, human LY6H, endogenous on cancer cell lines (H446, DMS79, H526, MOLT3, KE-37) (human, UniProt O94772 26-115).
T1 construct: Endogenous protein on human SCLC and T-ALL cell lines
T1 sequence (looked up): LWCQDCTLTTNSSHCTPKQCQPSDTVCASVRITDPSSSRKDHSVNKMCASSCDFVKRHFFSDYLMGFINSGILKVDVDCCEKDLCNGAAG
Put plainly: flow cytometry, antibody titrated 0.1-100 nM on MOLT3 cells, MFI; lower panel and table, column MOLT3_EC50 (nM). The protocol: (§1) The assay uses 3-5 fold dilutions (from 100 nM to 0.1 nM) of antibody of a stock antibody concentration (100 nM) in binding buffer. Serial diluted antibodies were incubated with live cells on ice for 30 minutes, after a brief wash, cells were incubated with Alexa Fluro® 488-conjugated anti-human IgG secondary antibody @1:100, or 15 μg/ml (709-546-149, Jackson ImmunoResearch). Acquisition of the MFI (Median Fluorescent Intensity) was performed on a MACSQuant® Flow Cytometers (Miltenyi Biotec). EC₅₀ was calculated using Dose-response EC₅₀ shift by global fitting from GraphPad Prism.
(§2) An estimate of affinity is interpreted from one-half the concentration at which antibody binding first achieves saturation.
A general note: Flow cytometry measures light scatter and fluorescence of single cells or particles in a stream.

In assay [2] the target is T2, recombinant human LY6H-ECD (C-terminal histidine tag) (human, UniProt O94772 26-115).
T2 construct: The ectodomain was cloned by PCR with a non-native signal peptide and a C-terminal histidine tag; also called recombinant LY6H; hLY6H-ECD; not shown: C-terminal histidine tag
T2 sequence (looked up): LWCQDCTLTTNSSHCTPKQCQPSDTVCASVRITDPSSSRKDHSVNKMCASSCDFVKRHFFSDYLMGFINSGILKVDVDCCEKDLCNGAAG
Put plainly: Octet Red BLI, antibody on Protein A biosensor, recombinant human LY6H in solution. The protocol: (§3) Affinity: The affinity of antibodies to various recombinant LY6H protein was determined on an Octet Red™ instrument. After loading reagents into a 96-well plate, the Octet Red with Protein A-conjugated biosensors was programmed as follows: 30 seconds for baseline #1; 120 seconds to immobilize the antibody; 30 seconds for baseline #2; 300 seconds for association of antibody to recombinant LY6H; and 300-600 seconds for dissociation of recombinant LY6H from the antibody.
Background: Biolayer interferometry detects binding as a change in optical thickness at a sensor tip.

Assay [3] has as its target T2, recombinant human LY6H-ECD (C-terminal …). Put plainly: Octet (bio-layer interferometry), table row Octet; antigen not named on the sheet, recombinant human LY6H per paragraph 455 and Table 8 (Table 8 prints 33 for 1F8). The protocol:
as §3

For assay [4], the target named is T3, Macaca fascicularis LY6H expressed on 293T cells (plasmid BBP 492/598, M1-P140 plus Myc-DDK) (Macaca fascicularis, UniProt Q4R5M8 26-115).
T3 construct: Full construct as encoded; also called monkey LY6H; not shown: Myc-DDK tag at the C-terminus
T3 sequence: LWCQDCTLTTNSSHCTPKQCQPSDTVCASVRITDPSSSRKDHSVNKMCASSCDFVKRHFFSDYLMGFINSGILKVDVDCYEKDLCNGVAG
Put plainly: on-cell affinity by flow cytometry: unconjugated 1F8 (0.05-100 nM) competes with 1 nM PE-conjugated 1F8 on 293T cells expressing Macaca fascicularis LY6H (per legend paragraph 131); table row 293T-mmLY6H. The protocol: Serial diluted antibodies were incubated with 293 cells expressing either human or Macaca fascicularis on ice for 4 hours, after a brief wash. Acquisition of the MFI (Median Fluorescent Intensity) was performed on a MACSQuant® Flow Cytometers (Miltenyi Biotec). On cell affinity (Kd) was calculated using dose-response EC50 shift by global fitting from GraphPad Prism™.
Serial diluted antibodies were incubated with live cells on ice for 4 hours, after a brief wash. Acquisition of the MFI (Median Fluorescent Intensity) was performed on a MACSQuant® Flow Cytometers (Miltenyi Biotec). On cell affinity (Kd) was calculated using Dose-response EC₅₀ shift by global fitting from GraphPad Prism™.

The target of assay [5] is T1, human LY6H, endogenous on cancer cell …. Nature of the assay: flow cytometry, antibody titrated 0.1-100 nM on DMS79 cells, MFI; lower panel and table, column DMS79_EC50 (nM). The protocol:
as §1, §2

One may read the EC50 as the concentration that produces a half-maximal response. Read a low EC50 as a more potent agent. The Kd is the equilibrium constant for the complex coming apart.

B1: 1F8 (antibody, V domains shown)
VH: QVQLVESGGGVVQPGRSLRLSCAASGFTFSNYGMHWVRQAPGKGLEWVAVIWYDGSYKYYADSVKGRFTISRDNSKNTLYLQMNSLRTEDTAVYYCARSIVVVTATLDYWGQGTLVTVSS
VL: not shown
notes: also called 1F8_25B6; IF8
For B1, the EC50 in assay [1] was 2.7 nM; in assay [5], 3.3 nM. Besides, the Kd came out at 33 nM in assay [2], 31 nM in assay [3] and 21 nM in assay [4].

For the origin of these results see US20250319180A1 (BLUEFIN BIOMEDICINE, published 2025).
